Consider one protein from patent US20160009770A1 (LAWRENCE BERKELEY NATIONAL LABORATORY, published 2016).

Side chains are listed from the residue outwards. Ends that are not written are not given here. dC16 = not defined here

The data set deals with the molecule itself. The experiment in a line: UV-vis heme titration; reports an intact 4-helix bundle (self-association).

B1: dC16-BB-P2K conjugate 8 (designed binder)
peptide: dC16-GGGEIWKLHEEFLC([maleimide-PEG 2000 Da])KFEELLKLHEERLKKM
modifications: reading uncertain
notes: also called BB-dC16-P2K; H10H24-dC16-PEG2K
As to B1, the binding result is reported as “binds”.
